Source: US5776892A, “Anti-inflammatory peptides” (Curative Health Services, Inc., priority 1994, dated 1998)
No end group written: not given here.

Legend:
[1] = Acute toxicity in mice; assay type: in vivo, mouse; details: intravenous 100, 500 or 1,000 mg/kg
Method: Acute toxicity of CT-112 (SEQ. ID NO: 1) in mice and rats was assessed. Mice were dosed by intravenous injection with CT-112 (SEQ. ID NO: 1) at 100, 500 or 1,000 mg/kg.

[2] = Acute toxicity in rats; assay type: in vivo, rat; details: rats, 100, 500 or 1,000 mg/kg
Method: Rats were dosed with CT-112 (SEQ. ID NO: 1) at 100, 500 or 1,000 mg/kg. […] All rats returned to normal appearance the day after treatment.

## TTSQVRPR [CT-112, octapeptide derived from platelet factor 4]
[1]
  lesions at necropsy: No lesions were visible at necropsy
  mean body weight and mean body weight gain vs control: no statistical differences
[1]; one mouse at 500 and two at 1,000 mg/kg, day of treatment
  clinical effects: Minimal transient clinical effects (hypoactivity and hypersensitivity)
[2]
  lesions at necropsy: No lesions were visible at necropsy
  mean body weight and mean body weight gain vs control: no statistical differences
[2]; several rats at 500 and 1,000 mg/kg, day of treatment
  clinical effects: Transient clinical effects (hypoactivity, hypersensitiviy, staggered gait, cyanosis and absence of righting reflex)
